From FireProtDB (doi:10.1093/protein/14.11.891)

Details: Salmonella typhimurium (strain LT2 / SGSC1412 / ATCC 700720), pH 7, CD, Potassium phosphate 10 mM, reversible: yes, whole UniProt chain shown

B1: Sialidase wild type, P29768 (protein)
chain: MTVEKSVVFKAEGEHFTDQKGNTIVGSGSGGTTKYFRIPAMCTTSKGTIVVFADARHNTASDQSFIDTAAARSTDGGKTWNKKIAIYNDRVNSKLSRVMDPTCIVANIQGRETILVMVGKWNNNDKTWGAYRDKAPDTDWDLVLYKSTDDGVTFSKVETNIHDIVTKNGTISAMLGGVGSGLQLNDGKLVFPVQMVRTKNITTVLNTSFIYSTDGITWSLPSGYCEGFGSENNIIEFNASLVNNIRNSGLRRSFETKDFGKTWTEFPPMDKKVDNRNHGVQGSTITIPSGNKLVAAHSSAQNKNNDYTRSDISLYAHNLYSGEVKLIDDFYPKVGNASGAGYSCLSYRKNVDKETLYVVYEANGSIEFQDLSRHLPVIKSYN
For B1, the “denaturant midpoint (higher = more stable)” value (25 °C, GdnHCl) was 1.33 M, the unfolding free energy (25 °C, GdnHCl) was 4.24 kcal/mol and the Tm (Thermal) was 57 °C.
